Source: paper PMC11876699, “Elongator is a microtubule polymerase selective for polyglutamylated tubulin” (The EMBO Journal, 2025)

B1: mScarlet-Elp456 (Drosophila) (complex)
chain 1: MTSFRKRTVQKPIRGTRTSPHTAQVITSSGNPYLDVVIGGGLPMGSICLIEEDRFMTHAKVLAKYFLAEGVISKQEIFLGSLDDIPAEMLRRLPRPLTDQESMEQSEVQALGDAGAENGLRIAWRYNDLPLVNSEHATAKIGHHFNLMEQMDSMMLYNVKTTLWDDSPKHLDIVIDEEFSKSSSPTTPSLEQQPVEDAPPIPGTETAPQEKMPAQEEENSANNNNNNNNNSSSVTSSTKTGSQDSPLQVFHNPRYKGLLNDIQQLLRNESFVAGTKNNLCRVCLTSLGSPLWYDEHFGEDLIKFLTLLMASVRNCNSVCLITMPMHLIAKYDASLVPKIRQLVDYAIELESFAGSERETHPAFKEYSGLLHLHKMSAINTLAVHMPETPDLAFKLRRKKFIIEKFHLPPELQESSAKPDNCISGLLSNSNATASLDF
chain 2: MLSNLVVTKQKVVLVIDELNRERIAPKFIGSLLHEQGQGADTIKALPTGVSLKHVATFEALIDKYANNNTGSTTDSNSTGFNVILPTLADLLCYQTPAFIFGFLNRLRRSDNVRRVFLWASPQHLQDPHADYILAGCEYLAELVLRLESDKLLSLISRKPGGGVSNRRYSCEVSKTQFKVTPLDGGLPAGASPKQPSPEAEQTTEPASSTFKIELDEDEVLARNALTLPYERTSEPSEGNIIYTPDADDDFDEEDPDEDLCI
chain 3: MATSVLLACGLNEQKLPGFVHISEESNVDASFLISCVLGQRLRISNAGTLLVCLQHHYQHYFNAGMRLGYNTNIFQGKTLGVIDVLSDMAGEGLASKWLTNTEGQTLTDQLVEDIRAQVERNYASRNSYTVLIDNLSILFNLGASKLQVQQFCQDLAALGKEREKLTVITKLSNSDIYQLTDNNVAKLGQVRIQVLRLKSGVFREVDGKLLIERVLDEGNYACEETRKEVLYKVNDRNVKVFAPGEIGVKV
notes: Elp4, Drosophila melanogaster; Elp5, Drosophila melanogaster; ORF; Elp6, Drosophila melanogaster; put on Elp4 here by the name only (surmised); source: E. coli BL21 (DE3) Rosetta2, purified (Glutathione Sepharose, TEV elution, Superdex 200); not shown: GST, N-terminal, cleaved; copies: 2 + 2 + 2
B2: eGFP-Elp456 (Drosophila, wild type) (complex)
chain 1: B1 chain 1
chain 2: B1 chain 2
chain 3: B1 chain 3
notes: Elp4, Drosophila melanogaster; Elp5, Drosophila melanogaster; ORF; Elp6, Drosophila melanogaster; it is put on Elp4 here only by the name eGFP-Elp456 (surmised); also called eGFP-Elp456 (WT); source: E. coli BL21 (DE3) Rosetta2, purified (Glutathione Sepharose, TEV elution, Superdex 200); not shown: GST, N-terminal, cleaved; copies: 2 + 2 + 2
B3: recombinant Drosophila α1β1-tubulin heterodimers (His6-PC-tubulin α1 84B with co-purified tubulin β1 56D) (complex)
chain 1: MRECISIHVGQAGVQIGNACWELYCLEHGIQPDGQMPSDKTVGGGDDSFNTFFSETGAGKHVPRAVFVDLEPTVVDEVRTGTYRQLFHPEQLITGKEDAANNYARGHYTIGKEIVDLVLDRIRKLADQCTGLQGFLIFHSFGGGTGSGFTSLLMERLSVDYGKKSKLEFAIYPAPQVSTAVVEPYNSILTTHTTLEHSDCAFMVDNEAIYDICRRNLDIERPTYTNLNRLIGQIVSSITASLRFDGALNVDLTEFQTNLVPYPRIHFPLVTYAPVISAEKAYHEQLSVAEITNACFEPANQMVKCDPRHGKYMACCMLYRGDVVPKDVNAAIATIKTKRTIQFVDWCPTGFKVGINYQPPTVVPGGDLAKVQRAVCMLSNTTAIAEAWARLDHKFDLMYAKRAFVHWYVGEGMEEGEFSEAREDLAALEKDYEEVGMDSGDGEGEGAEEY
chain 2: MREIVHIQAGQCGNQIGAKFWEIISDEHGIDATGAYHGDSDLQLERINVYYNEASGGKYVPRAVLVDLEPGTMDSVRSGPFGQIFRPDNFVFGQSGAGNNWAKGHYTEGAELVDSVLDVVRKEAESCDCLQGFQLTHSLGGGTGSGMGTLLISKIREEYPDRIMNTYSVVPSPKVSDTVVEPYNATLSVHQLVENTDETYCIDNEALYDICFRTLKLTTPTYGDLNHLVSLTMSGVTTCLRFPGQLNADLRKLAVNMVPFPRLHFFMPGFAPLTSRGSQQYRALTVPELTQQMFDAKNMMAACDPRHGRYLTVAAIFRGRMSMKEVDEQMLNIQNKNSSYFVEWIPNNVKTAVCDIPPRGLKMSATFIGNSTAIQELFKRISEQFTAMFRRKAFLHWYTGEGMDEMEFTEAESNMNDLVSEYQQYQEATADEDAEFEEEQEAEVDEN
modifications: the paper calls this tubulin highly modified (polyglutamylated, acetylated and partially detyrosinated)
notes: tubulin α1 84B, Drosophila melanogaster, codon-optimised gene; tubulin β1 56D, Drosophila melanogaster, endogenous, co-purified with the tagged α chain; also called recombinant Drosophila tubulin; PC-α-Tubulin; source: D.mel-2 (S2) cells stably transfected (pMT Puro), purified (Protein C resin, Superdex 200); also in S2 cell lysate; not shown: His6, N-terminal, kept; PC, N-terminal, kept

Key:
[1] = target: eGFP-Elp456 solo (Drosophila, three point mutations in each subunit) (Drosophila) (UniProt Q9VMQ7); assay: MST; Monolith X, 25 °C; eGFP-Elp456 (WT or mutated) constant at 50 nM, tubulin or Elp123 in twofold dilution series; binding buffer with 0.05% Tween-20
[2] = target: B2; assay: as above
[3] = target: microtubules assembled from porcine brain tubulin (pig, UniProt Q2XVP4 1-451, rhodamine, AMCA, HiLyte 647 or biotin on part of the tubulin, by experiment); assay: TIRF microscopy of decorated microtubules; GMPCPP-stabilized microtubules settled on passivated glass, proteins added one after the other in BRB80 imaging buffer; 100 nM 488-SNAP-Elongator or 488-SNAP-Elp123, 500 nM mScarlet-Elp456, 15 µM 647-GTP-Tubulin; conditions: both partners purified
[4] = target: T1, Elp123 subcomplex (Drosophila Elp1, Elp2 and His6-PC-SNAP-Elp3) (Drosophila melanogaster, UniProt Q9VGK7 1-1252; Q7K4B3 1-794; Q9VQZ6 1-552, Alexa Fluor 488 on the SNAP tag); assay: MST; Monolith X, 25 °C; eGFP-Elp456 (WT or mutated) constant at 50 nM, tubulin or Elp123 in twofold dilution series; binding buffer with 0.05% Tween-20; conditions: both partners purified
T1 construct: Elp1, Drosophila melanogaster, codon-optimised synthetic gene, untagged; Elp2, Drosophila melanogaster, codon-optimised synthetic gene, untagged; Elp3, Drosophila melanogaster, codon-optimised synthetic gene; Elutes at about 600 kDa, a dimer of Elp1-Elp2-Elp3 protomers; source: Sf9, baculovirus (biGBac pBig1a), purified (Protein C resin, heparin, Superose 6); not shown: His6, N-terminal, kept; …
T1 sequence (Q9VGK7 whole entry, chain 1 of 3): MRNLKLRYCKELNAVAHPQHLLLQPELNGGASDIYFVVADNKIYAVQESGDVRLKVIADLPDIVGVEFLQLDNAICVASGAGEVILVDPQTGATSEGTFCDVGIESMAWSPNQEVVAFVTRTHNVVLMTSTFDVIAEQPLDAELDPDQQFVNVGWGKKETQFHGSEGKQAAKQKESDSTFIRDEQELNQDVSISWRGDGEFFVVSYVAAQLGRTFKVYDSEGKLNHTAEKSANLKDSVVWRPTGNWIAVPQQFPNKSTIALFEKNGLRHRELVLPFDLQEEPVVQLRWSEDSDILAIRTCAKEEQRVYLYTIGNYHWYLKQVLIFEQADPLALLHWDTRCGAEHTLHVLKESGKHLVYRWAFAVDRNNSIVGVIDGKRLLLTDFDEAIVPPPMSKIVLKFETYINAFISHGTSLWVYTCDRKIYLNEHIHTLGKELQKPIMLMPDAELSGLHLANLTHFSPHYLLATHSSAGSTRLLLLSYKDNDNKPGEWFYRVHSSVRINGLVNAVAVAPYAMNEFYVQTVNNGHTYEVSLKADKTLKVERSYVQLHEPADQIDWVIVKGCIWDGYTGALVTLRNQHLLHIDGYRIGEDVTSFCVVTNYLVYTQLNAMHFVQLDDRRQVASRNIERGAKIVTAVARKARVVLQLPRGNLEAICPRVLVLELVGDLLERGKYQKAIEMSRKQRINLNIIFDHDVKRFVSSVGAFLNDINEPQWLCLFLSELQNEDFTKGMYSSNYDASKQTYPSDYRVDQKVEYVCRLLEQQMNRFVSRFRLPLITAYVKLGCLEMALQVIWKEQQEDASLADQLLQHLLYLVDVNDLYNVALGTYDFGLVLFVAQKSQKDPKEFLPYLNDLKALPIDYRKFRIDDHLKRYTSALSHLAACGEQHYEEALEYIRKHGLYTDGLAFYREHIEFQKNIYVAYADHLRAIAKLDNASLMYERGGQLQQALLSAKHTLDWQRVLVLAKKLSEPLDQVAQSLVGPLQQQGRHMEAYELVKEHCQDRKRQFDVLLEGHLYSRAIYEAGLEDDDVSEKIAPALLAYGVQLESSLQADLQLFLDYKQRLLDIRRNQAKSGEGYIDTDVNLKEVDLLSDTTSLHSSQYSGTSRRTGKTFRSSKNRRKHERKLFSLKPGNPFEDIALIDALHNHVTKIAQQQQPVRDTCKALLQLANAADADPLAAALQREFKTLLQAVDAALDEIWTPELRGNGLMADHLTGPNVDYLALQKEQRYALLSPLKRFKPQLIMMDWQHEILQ
T1 sequence (Q7K4B3 whole entry, chain 2 of 3): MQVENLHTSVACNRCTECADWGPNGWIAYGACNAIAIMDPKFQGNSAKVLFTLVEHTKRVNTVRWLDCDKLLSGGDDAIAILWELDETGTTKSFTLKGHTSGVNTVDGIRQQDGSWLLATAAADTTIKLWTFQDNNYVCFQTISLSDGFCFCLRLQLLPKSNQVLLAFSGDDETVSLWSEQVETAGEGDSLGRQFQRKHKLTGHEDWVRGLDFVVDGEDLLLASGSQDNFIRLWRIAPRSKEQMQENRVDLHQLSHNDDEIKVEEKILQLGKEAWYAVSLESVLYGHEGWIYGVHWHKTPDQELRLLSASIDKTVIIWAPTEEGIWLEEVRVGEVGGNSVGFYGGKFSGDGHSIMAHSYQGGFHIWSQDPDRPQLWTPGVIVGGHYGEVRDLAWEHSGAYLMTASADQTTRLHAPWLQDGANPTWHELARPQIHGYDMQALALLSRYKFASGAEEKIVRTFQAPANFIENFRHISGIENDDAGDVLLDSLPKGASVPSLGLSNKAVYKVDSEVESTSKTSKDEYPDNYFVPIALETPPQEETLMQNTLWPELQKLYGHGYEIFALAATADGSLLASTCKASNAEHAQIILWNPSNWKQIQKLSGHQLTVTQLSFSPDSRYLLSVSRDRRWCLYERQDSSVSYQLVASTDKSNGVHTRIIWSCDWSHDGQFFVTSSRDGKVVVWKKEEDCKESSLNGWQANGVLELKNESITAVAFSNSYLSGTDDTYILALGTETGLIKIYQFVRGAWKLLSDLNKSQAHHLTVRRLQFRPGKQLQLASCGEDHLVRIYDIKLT
T1 sequence (Q9VQZ6 whole entry, chain 3 of 3): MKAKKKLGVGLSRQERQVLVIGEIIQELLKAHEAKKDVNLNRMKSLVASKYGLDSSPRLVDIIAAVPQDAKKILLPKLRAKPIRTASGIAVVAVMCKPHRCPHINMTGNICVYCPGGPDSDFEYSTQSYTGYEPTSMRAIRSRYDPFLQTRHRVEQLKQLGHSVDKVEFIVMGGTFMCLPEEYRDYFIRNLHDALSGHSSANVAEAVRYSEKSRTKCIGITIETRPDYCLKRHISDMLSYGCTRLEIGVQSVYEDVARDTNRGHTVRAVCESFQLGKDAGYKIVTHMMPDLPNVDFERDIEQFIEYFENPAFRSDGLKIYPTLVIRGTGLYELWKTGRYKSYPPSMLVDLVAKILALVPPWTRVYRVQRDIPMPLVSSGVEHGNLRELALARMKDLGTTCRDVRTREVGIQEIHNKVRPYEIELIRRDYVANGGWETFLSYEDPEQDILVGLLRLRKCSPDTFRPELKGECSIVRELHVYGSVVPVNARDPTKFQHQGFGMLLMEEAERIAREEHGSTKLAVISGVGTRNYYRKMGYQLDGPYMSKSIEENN

[5] = target: B2; assay: MST; as a11, with 100 µM tRNA (and 2.5 mM MgATP by the legend) in the buffer of both partners; conditions: both partners purified

Work on “Elp123 subcomplex (Drosophila Elp1, Elp2 and His6-PC-SNAP-Elp3) (from UniProt Q9VGK7 1-1252; Q7K4B3 1-794; Q9VQZ6 1-552)” yielded a Kd [1] of 67.1 nM.

For “de-tyrosinated HeLa S3 tubulin (treated with carboxypeptidase A) (from UniProt P68363 1-451; P07437 1-444) (complex)”, the Kd [2] was > 22000 nM.

Work on “pig brain tubulin (free GTP-αβ-tubulin heterodimers) (from UniProt Q2XVP4 1-451; P02554 1-445) (complex)” yielded a Kd [2] of 1800 nM.

Work on “tubulin purified from HeLa S3 cells (from UniProt P68363 1-451; P07437 1-444) (complex)” yielded a Kd [2] of 21200 nM.

For “tubulin purified from TTLL1/7-double KO mouse brain (lacking polyglutamylation) (from UniProt P68369 1-451; Q7TMM9 1-445) (complex)”, the Kd [2] was > 25000 nM.

B1 was tested, and the “fold less fluorescence intensity on microtubules without Elp123 than with it” value [3] was 9.3 fold.

With B2 the Kd [4] was 15.5 ± 3.7 nM.

Molecule B3 has a Kd [5] of 2900 nM, a Kd [1] of 1600 nM and a Kd ([2]; both partners purified) of 1200 nM.
